± gives the standard deviation of the averaged measurements.
Assay: total protein half-life in vivo (active degradation + dilution); higher = more stable protein
[1] = E. coli NCM3722 delta-clpP delta-lon delta-hslV, growth: N-lim chemostat, doubling time 6 h
[2] = E. coli NCM3722 delta-clpP, growth: N-lim chemostat, doubling time 6 h
[3] = E. coli NCM3722 delta-hslV, growth: N-lim chemostat, doubling time 6 h
[4] = E. coli NCM3722 delta-lon, growth: N-lim chemostat, doubling time 6 h
[5] = E. coli NCM3722 delta-smpB, growth: N-lim chemostat, doubling time 6 h
[6] = wild type E. coli NCM3722, growth: C-lim chemostat, doubling time 3 h
[7] = wild type E. coli NCM3722, growth: C-lim chemostat, doubling time 6 h
[8] = wild type E. coli NCM3722, growth: C-lim chemostat, doubling time 12 h
[9] = wild type E. coli NCM3722, growth: N-lim chemostat, doubling time 6 h
[10] = wild type E. coli NCM3722, growth: P-lim chemostat, doubling time 12 h
[11] = wild type E. coli NCM3722, growth: N-lim chemostat, doubling time 12 h
[12] = wild type E. coli NCM3722, growth: P-lim chemostat, doubling time 6 h

MIEKIWSGESPLWRLLLPLSWLYGLVSGAIRLCYKLKLKRAWRAPVPVVVVGNLTAGGNGKTPVVVWLVEQLQQRGIRVGVVSRGYGGKAESYPLLLSADTTTAQAGDEPVLIYQRTDAPVAVSPVRSDAVKAILAQHPDVQIIVTDDGLQHYRLARDVEIVVIDGVRRFGNGWWLPAGPMRERAGRLKSVDAVIVNGGVPRSGEIPMHLLPGQAVNLRTGTRCDVAQLEHVVAMAGIGHPPRFFATLKMCGVQPEKCVPLADHQSLNHADVSALVSAGQTLVMTEKDAVKCRAFAEENWWYLPVDAQLSGDEPAKLLTQLTLLASGN
total protein half-life in vivo [1]: 6.05 ± 0.42 h | total protein half-life in vivo [2]: 6.49 h | total protein half-life in vivo [3]: 6.52 ± 1.2 h | total protein half-life in vivo [4]: 6.39 ± 0.34 h | total protein half-life in vivo [5]: 5.71 ± 0.64 h | total protein half-life in vivo [6]: 3.11 ± 0.41 h | total protein half-life in vivo [7]: 7.25 ± 0.18 h | total protein half-life in vivo [8]: 8.44 h | total protein half-life in vivo [9]: 5.52 h | total protein half-life in vivo [10]: 13.8 ± 2 h

MAKLTLQEQLLKAGLVTSKKAAKVERTAKKSRVQAREARAAVEENKKAQLERDKQLSEQQKQAALAKEYKAQVKQLIEMNRITIANGDIGFNFTDGNLIKKIFVDKLTQAQLINGRLAIARLLVDNNSEGEYAIIPASVADKIAQRDASSIVLHSALSAEEQDEDDPYADFKVPDDLMW
total protein half-life in vivo [1]: 5.344 ± 0.0096 h | total protein half-life in vivo [2]: 4.88 ± 0.16 h | total protein half-life in vivo [3]: 2.22 ± 0.1 h | total protein half-life in vivo [4]: 2.88 h | total protein half-life in vivo [5]: 2.37 h | total protein half-life in vivo [6]: 2.24 ± 0.012 h | total protein half-life in vivo [7]: 3.23 ± 0.14 h | total protein half-life in vivo [8]: 4.09 ± 0.13 h | total protein half-life in vivo [9]: 1.95 ± 0.37 h | total protein half-life in vivo [11]: 2.45 ± 0.67 h | total protein half-life in vivo [12]: 2.17 ± 0.44 h | total protein half-life in vivo [10]: 4.41 ± 0.084 h

MFIGFDYGTANCSVAVMRDGKPHLLKMENDSTLLPSMLCAPTREAVSEWLYRHHDVPADDDETQALLRRAIRYNREEDIDVTAKSVQFGLSSLAQYIDDPEEVWFVKSPKSFLGASGLKPQQVALFEDLVCAMMLHIRQQAQAQLPEAITQAVIGRPINFQGLGGDEANTQAQGILERAAKRAGFRDVVFQYEPVAAGLDYEATLQEEKRVLVVDIGGGTTDCSLLLMGPQWRSRLDREASLLGHSGCRIGGNDLDIALAFKNLMPLLGMGGETEKGIALPILPWWNAVAINDVPAQSDFYSSANGRLLNDLVRDAREPEKVALLQKVWRQRLSYRLVRSAEECKIALSSVAETRASLPFISNELATLISQRGLESALSQPLTRILEQVQLALDNAQEKPDVIYLTGGSARSPLIKKALAEQLPGIPIAGGDDFGSVTAGLARWAEVVFR
total protein half-life in vivo [1]: 4.24 ± 0.21 h | total protein half-life in vivo [2]: 3.46 ± 0.21 h | total protein half-life in vivo [3]: 3.42 ± 0.99 h | total protein half-life in vivo [4]: 3.061 ± 0.019 h | total protein half-life in vivo [5]: 2.69 ± 0.13 h | total protein half-life in vivo [6]: 2.8 ± 0.11 h | total protein half-life in vivo [7]: 5.13 ± 0.5 h | total protein half-life in vivo [8]: 9.46 ± 2.2 h | total protein half-life in vivo [9]: 3.1 h | total protein half-life in vivo [11]: 3.87 h | total protein half-life in vivo [12]: 4.93 ± 0.058 h | total protein half-life in vivo [10]: 7.96 ± 0.29 h

MPSFDIVSEVDLQEARNAVDNASREVESRFDFRNVEASFELNDASKTIKVLSESDFQVNQLLDILRAKLLKRGIEGSSLDVPENIVHSGKTWFVEAKLKQGIESATQKKIVKMIKDSKLKVQAQIQGDEIRVTGKSRDDLQAVMAMVRGGDLGQPFQFKNFRD [P0A8E7]
total protein half-life in vivo [1]: 6.17 ± 0.16 h | total protein half-life in vivo [2]: 6.38 ± 1 h | total protein half-life in vivo [3]: 5.06 ± 0.27 h | total protein half-life in vivo [4]: 6.83 ± 0.4 h | total protein half-life in vivo [5]: 5.85 ± 0.38 h | total protein half-life in vivo [6]: 3.18 ± 0.28 h | total protein half-life in vivo [7]: 6.22 ± 1.1 h | total protein half-life in vivo [8]: 10.7 ± 0.25 h | total protein half-life in vivo [9]: 4.32 ± 0.57 h | total protein half-life in vivo [11]: 8.82 ± 1 h | total protein half-life in vivo [12]: 5.06 ± 1.4 h | total protein half-life in vivo [10]: 12.7 ± 1.6 h

MSKRTFAVILTLLCSFCIGQALAGGIVLQRTRVIYDASRKEAALPVANKGAETPYLLQSWVDNIDGKSRAPFIITPPLFRLEAGDDSSLRIIKTADNLPENKESLFYINVRAIPAKKKSDDVNANELTLVFKTRIKMFYRPAHLKGRVNDAWKSLEFKRSDHSLNIYNPTEYYVVFAGLAVDKTDLTSKIEYIAPGEHKQLPLPASGGKNVKWAAINDYGGSSGTETRPLQ
total protein half-life in vivo [3]: 6.17 h

MGKTQPLPILITGGGRRIGLALAWHFINQKQPVIVSYRTHYPAIDGLINAGAQCIQADFSTNDGVMAFADEVLKSTHGLRAILHNASAWMAEKPGAPLADVLACMMQIHVNTPYLLNHALERLLRGHGHAASDIIHFTDYVVERGSDKHIAYAASKAALDNMTRSFARKLAPEVKVNSIAPSLILFNEHDDAEYRQQALNKSLMKTAPGEKEVIDLVDYLLTSCFVTGRSFPLDGGRHLR [P0AFS3]
total protein half-life in vivo [1]: 5.23 ± 0.36 h | total protein half-life in vivo [2]: 5.33 ± 1.2 h | total protein half-life in vivo [3]: 5.31 ± 0.45 h | total protein half-life in vivo [4]: 5.6 ± 0.53 h | total protein half-life in vivo [5]: 4.85 ± 0.43 h | total protein half-life in vivo [6]: 3.124 ± 0.021 h | total protein half-life in vivo [7]: 5.67 ± 0.13 h | total protein half-life in vivo [8]: 11.5 ± 1 h | total protein half-life in vivo [9]: 5.32 ± 0.17 h | total protein half-life in vivo [11]: 9.17 ± 0.28 h | total protein half-life in vivo [12]: 5.56 ± 0.12 h | total protein half-life in vivo [10]: 12.3 ± 0.39 h
